Laboratory results from patent US20140147444A1 (published 2014).

T1: human OPGbp [143-317] (human, UniProt O14788 143-317)
T1 construct: also called OPGL
T1 sequence (looked up): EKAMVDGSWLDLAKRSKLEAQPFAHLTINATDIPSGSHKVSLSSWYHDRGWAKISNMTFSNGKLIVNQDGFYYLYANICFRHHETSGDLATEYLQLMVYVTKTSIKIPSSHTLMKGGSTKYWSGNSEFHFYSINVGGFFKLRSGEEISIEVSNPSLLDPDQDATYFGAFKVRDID


biological target: T1, human OPGbp [143-317]; assay: SPR (BIAcore), immobilized OPGbp [143-317]

Kd | koff | kon | binding result | Binder
26600 nM | 0.099 s⁻¹ | 3700 M⁻¹ s⁻¹ |  | “AT” antibody variant N98F (heavy chain CDR3) (antibody, name in Kabat numbering, V domains shown, not shown: human IgG1 CH1, hinge, CH2 and CH3) VH: QVQLVQSGAEVRKPGASVKVSCKASGYDFSNYAIHWVRQAPGQRLEWMGWINAGNGNTKFSQKFQGRITVTRDTAASTAYMELRSLRSEDTAVYYCARDSSFMVRGIIIAYYFDYWGQGTLVTVSS VL: EIVMTQSPSSLSASVGDRVTITCRASQSISRYLNWYQLKPGKAPRLLIYGASSLQSGVPSRFSGSGSGAEFTLTISSLQPEDIATYYCQHTRAFGQGTKVEIKR
1.06 nM | 0.00234 s⁻¹ | 2.2e+06 M⁻¹ s⁻¹ |  | “AT” antibody variant N98H (heavy chain CDR3) (antibody, name in Kabat numbering, V domains shown, not shown: human IgG1 CH1, hinge, CH2 and CH3) VH: QVQLVQSGAEVRKPGASVKVSCKASGYDFSNYAIHWVRQAPGQRLEWMGWINAGNGNTKFSQKFQGRITVTRDTAASTAYMELRSLRSEDTAVYYCARDSSHMVRGIIIAYYFDYWGQGTLVTVSS VL: EIVMTQSPSSLSASVGDRVTITCRASQSISRYLNWYQLKPGKAPRLLIYGASSLQSGVPSRFSGSGSGAEFTLTISSLQPEDIATYYCQHTRAFGQGTKVEIKR
7.6 nM | 0.00436 s⁻¹ | 568000 M⁻¹ s⁻¹ |  | “AT” antibody variant N98I (heavy chain CDR3) (antibody, name in Kabat numbering, V domains shown, not shown: human IgG1 CH1, hinge, CH2 and CH3) VH: QVQLVQSGAEVRKPGASVKVSCKASGYDFSNYAIHWVRQAPGQRLEWMGWINAGNGNTKFSQKFQGRITVTRDTAASTAYMELRSLRSEDTAVYYCARDSSIMVRGIIIAYYFDYWGQGTLVTVSS VL: EIVMTQSPSSLSASVGDRVTITCRASQSISRYLNWYQLKPGKAPRLLIYGASSLQSGVPSRFSGSGSGAEFTLTISSLQPEDIATYYCQHTRAFGQGTKVEIKR
41.3 nM | 0.0112 s⁻¹ | 272000 M⁻¹ s⁻¹ |  | “AT” antibody variant N98Y (heavy chain CDR3) (antibody, name in Kabat numbering, V domains shown, not shown: human IgG1 CH1, hinge, CH2 and CH3) VH: QVQLVQSGAEVRKPGASVKVSCKASGYDFSNYAIHWVRQAPGQRLEWMGWINAGNGNTKFSQKFQGRITVTRDTAASTAYMELRSLRSEDTAVYYCARDSSYMVRGIIIAYYFDYWGQGTLVTVSS VL: EIVMTQSPSSLSASVGDRVTITCRASQSISRYLNWYQLKPGKAPRLLIYGASSLQSGVPSRFSGSGSGAEFTLTISSLQPEDIATYYCQHTRAFGQGTKVEIKR
0.81 nM | 0.00151 s⁻¹ | 1.86e+06 M⁻¹ s⁻¹ |  | “AT” antibody variant N98Q (heavy chain CDR3) (antibody, name in Kabat numbering, V domains shown, not shown: human IgG1 CH1, hinge, CH2 and CH3) VH: QVQLVQSGAEVRKPGASVKVSCKASGYDFSNYAIHWVRQAPGQRLEWMGWINAGNGNTKFSQKFQGRITVTRDTAASTAYMELRSLRSEDTAVYYCARDSSQMVRGIIIAYYFDYWGQGTLVTVSS VL: EIVMTQSPSSLSASVGDRVTITCRASQSISRYLNWYQLKPGKAPRLLIYGASSLQSGVPSRFSGSGSGAEFTLTISSLQPEDIATYYCQHTRAFGQGTKVEIKR
 |  |  | no binding | “AT” antibody variant N98K (heavy chain CDR3) (antibody, name in Kabat numbering, V domains shown, not shown: human IgG1 CH1, hinge, CH2 and CH3) VH: QVQLVQSGAEVRKPGASVKVSCKASGYDFSNYAIHWVRQAPGQRLEWMGWINAGNGNTKFSQKFQGRITVTRDTAASTAYMELRSLRSEDTAVYYCARDSSKMVRGIIIAYYFDYWGQGTLVTVSS VL: EIVMTQSPSSLSASVGDRVTITCRASQSISRYLNWYQLKPGKAPRLLIYGASSLQSGVPSRFSGSGSGAEFTLTISSLQPEDIATYYCQHTRAFGQGTKVEIKR
27.5 nM | 0.0814 s⁻¹ | 2.96e+06 M⁻¹ s⁻¹ |  | “AT” antibody variant N98M (heavy chain CDR3) (antibody, name in Kabat numbering, V domains shown, not shown: human IgG1 CH1, hinge, CH2 and CH3) VH: QVQLVQSGAEVRKPGASVKVSCKASGYDFSNYAIHWVRQAPGQRLEWMGWINAGNGNTKFSQKFQGRITVTRDTAASTAYMELRSLRSEDTAVYYCARDSSMMVRGIIIAYYFDYWGQGTLVTVSS VL: EIVMTQSPSSLSASVGDRVTITCRASQSISRYLNWYQLKPGKAPRLLIYGASSLQSGVPSRFSGSGSGAEFTLTISSLQPEDIATYYCQHTRAFGQGTKVEIKR
0.82 nM | 0.00122 s⁻¹ | 1.48e+06 M⁻¹ s⁻¹ |  | “AT” antibody variant N98L (heavy chain CDR3) (antibody, name in Kabat numbering, V domains shown, not shown: human IgG1 CH1, hinge, CH2 and CH3) VH: QVQLVQSGAEVRKPGASVKVSCKASGYDFSNYAIHWVRQAPGQRLEWMGWINAGNGNTKFSQKFQGRITVTRDTAASTAYMELRSLRSEDTAVYYCARDSSLMVRGIIIAYYFDYWGQGTLVTVSS VL: EIVMTQSPSSLSASVGDRVTITCRASQSISRYLNWYQLKPGKAPRLLIYGASSLQSGVPSRFSGSGSGAEFTLTISSLQPEDIATYYCQHTRAFGQGTKVEIKR
24.3 nM | 0.00559 s⁻¹ | 230000 M⁻¹ s⁻¹ |  | “AT” antibody variant N98G (heavy chain CDR3) (antibody, name in Kabat numbering, V domains shown, not shown: human IgG1 CH1, hinge, CH2 and CH3) VH: QVQLVQSGAEVRKPGASVKVSCKASGYDFSNYAIHWVRQAPGQRLEWMGWINAGNGNTKFSQKFQGRITVTRDTAASTAYMELRSLRSEDTAVYYCARDSSGMVRGIIIAYYFDYWGQGTLVTVSS VL: EIVMTQSPSSLSASVGDRVTITCRASQSISRYLNWYQLKPGKAPRLLIYGASSLQSGVPSRFSGSGSGAEFTLTISSLQPEDIATYYCQHTRAFGQGTKVEIKR
0.58 nM | 0.00154 s⁻¹ | 2.67e+06 M⁻¹ s⁻¹ |  | “AT” antibody variant N98S (heavy chain CDR3) (antibody, name in Kabat numbering, V domains shown, not shown: human IgG1 CH1, hinge, CH2 and CH3) VH: QVQLVQSGAEVRKPGASVKVSCKASGYDFSNYAIHWVRQAPGQRLEWMGWINAGNGNTKFSQKFQGRITVTRDTAASTAYMELRSLRSEDTAVYYCARDSSSMVRGIIIAYYFDYWGQGTLVTVSS VL: EIVMTQSPSSLSASVGDRVTITCRASQSISRYLNWYQLKPGKAPRLLIYGASSLQSGVPSRFSGSGSGAEFTLTISSLQPEDIATYYCQHTRAFGQGTKVEIKR
2.93 nM | 0.00768 s⁻¹ | 2.62e+06 M⁻¹ s⁻¹ |  | “AT” antibody variant N98W (heavy chain CDR3) (antibody, name in Kabat numbering, V domains shown, not shown: human IgG1 CH1, hinge, CH2 and CH3) VH: QVQLVQSGAEVRKPGASVKVSCKASGYDFSNYAIHWVRQAPGQRLEWMGWINAGNGNTKFSQKFQGRITVTRDTAASTAYMELRSLRSEDTAVYYCARDSSWMVRGIIIAYYFDYWGQGTLVTVSS VL: EIVMTQSPSSLSASVGDRVTITCRASQSISRYLNWYQLKPGKAPRLLIYGASSLQSGVPSRFSGSGSGAEFTLTISSLQPEDIATYYCQHTRAFGQGTKVEIKR
0.3 nM | 0.00108 s⁻¹ | 3.59e+06 M⁻¹ s⁻¹ |  | “AT” antibody variant N98R (heavy chain CDR3) (antibody, name in Kabat numbering, V domains shown, not shown: human IgG1 CH1, hinge, CH2 and CH3) VH: QVQLVQSGAEVRKPGASVKVSCKASGYDFSNYAIHWVRQAPGQRLEWMGWINAGNGNTKFSQKFQGRITVTRDTAASTAYMELRSLRSEDTAVYYCARDSSRMVRGIIIAYYFDYWGQGTLVTVSS VL: EIVMTQSPSSLSASVGDRVTITCRASQSISRYLNWYQLKPGKAPRLLIYGASSLQSGVPSRFSGSGSGAEFTLTISSLQPEDIATYYCQHTRAFGQGTKVEIKR
1.13 nM | 0.00171 s⁻¹ | 1.51e+06 M⁻¹ s⁻¹ |  | “AT” antibody variant N98P (heavy chain CDR3) (antibody, name in Kabat numbering, V domains shown, not shown: human IgG1 CH1, hinge, CH2 and CH3) VH: QVQLVQSGAEVRKPGASVKVSCKASGYDFSNYAIHWVRQAPGQRLEWMGWINAGNGNTKFSQKFQGRITVTRDTAASTAYMELRSLRSEDTAVYYCARDSSPMVRGIIIAYYFDYWGQGTLVTVSS VL: EIVMTQSPSSLSASVGDRVTITCRASQSISRYLNWYQLKPGKAPRLLIYGASSLQSGVPSRFSGSGSGAEFTLTISSLQPEDIATYYCQHTRAFGQGTKVEIKR
0.43 nM | 0.000197 s⁻¹ | 456000 M⁻¹ s⁻¹ |  | “AT” antibody variant N98V (heavy chain CDR3) (antibody, name in Kabat numbering, V domains shown, not shown: human IgG1 CH1, hinge, CH2 and CH3) VH: QVQLVQSGAEVRKPGASVKVSCKASGYDFSNYAIHWVRQAPGQRLEWMGWINAGNGNTKFSQKFQGRITVTRDTAASTAYMELRSLRSEDTAVYYCARDSSVMVRGIIIAYYFDYWGQGTLVTVSS VL: EIVMTQSPSSLSASVGDRVTITCRASQSISRYLNWYQLKPGKAPRLLIYGASSLQSGVPSRFSGSGSGAEFTLTISSLQPEDIATYYCQHTRAFGQGTKVEIKR

biological target: T1, human OPGbp [143-317]; assay: SPR (BIAcore), immobilized OPGbp [143-317]; remark: another data set of the same source

binding result | Kd | koff | kon | Binder
no binding |  |  |  | “AT” antibody variant S97D (heavy chain CDR3) (antibody, name in Kabat numbering, V domains shown, not shown: human IgG1 CH1, hinge, CH2 and CH3) VH: QVQLVQSGAEVRKPGASVKVSCKASGYDFSNYAIHWVRQAPGQRLEWMGWINAGNGNTKFSQKFQGRITVTRDTAASTAYMELRSLRSEDTAVYYCARDSDNMVRGIIIAYYFDYWGQGTLVTVSS VL: EIVMTQSPSSLSASVGDRVTITCRASQSISRYLNWYQLKPGKAPRLLIYGASSLQSGVPSRFSGSGSGAEFTLTISSLQPEDIATYYCQHTRAFGQGTKVEIKR
no binding |  |  |  | “AT” antibody variant S97G (heavy chain CDR3) (antibody, name in Kabat numbering, V domains shown, not shown: human IgG1 CH1, hinge, CH2 and CH3) VH: QVQLVQSGAEVRKPGASVKVSCKASGYDFSNYAIHWVRQAPGQRLEWMGWINAGNGNTKFSQKFQGRITVTRDTAASTAYMELRSLRSEDTAVYYCARDSGNMVRGIIIAYYFDYWGQGTLVTVSS VL: EIVMTQSPSSLSASVGDRVTITCRASQSISRYLNWYQLKPGKAPRLLIYGASSLQSGVPSRFSGSGSGAEFTLTISSLQPEDIATYYCQHTRAFGQGTKVEIKR
no binding |  |  |  | “AT” antibody variant S97F (heavy chain CDR3) (antibody, name in Kabat numbering, V domains shown, not shown: human IgG1 CH1, hinge, CH2 and CH3) VH: QVQLVQSGAEVRKPGASVKVSCKASGYDFSNYAIHWVRQAPGQRLEWMGWINAGNGNTKFSQKFQGRITVTRDTAASTAYMELRSLRSEDTAVYYCARDSFNMVRGIIIAYYFDYWGQGTLVTVSS VL: EIVMTQSPSSLSASVGDRVTITCRASQSISRYLNWYQLKPGKAPRLLIYGASSLQSGVPSRFSGSGSGAEFTLTISSLQPEDIATYYCQHTRAFGQGTKVEIKR
 | 3 nM | 0.00248 s⁻¹ | 839000 M⁻¹ s⁻¹ | “AT” antibody variant S97H (heavy chain CDR3) (antibody, name in Kabat numbering, V domains shown, not shown: human IgG1 CH1, hinge, CH2 and CH3) VH: QVQLVQSGAEVRKPGASVKVSCKASGYDFSNYAIHWVRQAPGQRLEWMGWINAGNGNTKFSQKFQGRITVTRDTAASTAYMELRSLRSEDTAVYYCARDSHNMVRGIIIAYYFDYWGQGTLVTVSS VL: EIVMTQSPSSLSASVGDRVTITCRASQSISRYLNWYQLKPGKAPRLLIYGASSLQSGVPSRFSGSGSGAEFTLTISSLQPEDIATYYCQHTRAFGQGTKVEIKR
 | 1940 nM |  |  | “AT” antibody variant S97E (heavy chain CDR3) (antibody, name in Kabat numbering, V domains shown, not shown: human IgG1 CH1, hinge, CH2 and CH3) VH: QVQLVQSGAEVRKPGASVKVSCKASGYDFSNYAIHWVRQAPGQRLEWMGWINAGNGNTKFSQKFQGRITVTRDTAASTAYMELRSLRSEDTAVYYCARDSENMVRGIIIAYYFDYWGQGTLVTVSS VL: EIVMTQSPSSLSASVGDRVTITCRASQSISRYLNWYQLKPGKAPRLLIYGASSLQSGVPSRFSGSGSGAEFTLTISSLQPEDIATYYCQHTRAFGQGTKVEIKR
